# According to patent publication US20080019962A1:
# Changes are numbered by the printed parent chain.
# B1: Fab D2 (Fab, V domains shown)
# VH: EVQLLESGGGLVQPGGSLRLSCAASGFTFSRYRMYWVRQAPGKGLEWVSSISPSGGDTRYADSVKGRFTISRDNSQNTLYLQMNSLRAEDTAVYYCARGGPRGNKYYFDYWGQGTLVTVSS
# VL: DIQMTQSPSSLSASVGDRVTITCRASQTIDNYLNWYQQKPGKAPKLVVYAASTLQTRVPSRFSGSGSGTDFTLTIDSLKPEDFATYFCQQGFSNPWTFGQGTTVAMIR
# B2: Fab C9 (Fab, V domains shown)
# VH: B1 VH with R33P, Y35F, S50Y, P53S, D57F, R59G, Q76K
# VL: QSVLTQPASVSGSPGQSITISCTGTSSDVGHYNYVSWYQQHPGKAPKVMIYDVSSRPSGVSDRFSGSKSGNTASLAISGLQAEDEADYYCSSYTSGDTLYVFGTGTKVTVLG
# B3: Fab A2 (Fab, V domains shown)
# VH: B1 VH
# VL: DIQMTQSPSFLSAFVGDRVTITCRASQDIRSDLAWYQQTPGKAPKLLIYAASTLKDGAPSRFSGSGSGTEFTLTISSLHPEDLATYYCQHLNGHPAFGPGTKVNIQR
# B4: Fab D5 (Fab, V domains shown)
# VH: EVQLLESGGGLVQPGGSLRLSCAASGFTFSRYDMHWVRQAPGKGLEWVSSISSSGGYTAYADSVKGRFTISRDNSKNTLYLQMNSLRAEDTAVYYCARGARGTSQGYWGQGTLVTVSS
# VL: DIQMTQSPGTLSLSPGERGTLSCRASQFVSYSYLAWYQQKPGQAPRLLIYGASSRAKGIPDRFSGSGSGTDFTLTITRLEPEDFAVYYCQQYVPSVPWTFGQGTKVEVKR
# B5: C9 IgG1 antibody (Fab C9 reformatted) (antibody, V domains shown)
# VH: B1 VH with R33P, Y35F, S50Y, P53S, D57F, R59G, Q76K
# VL: B2 VL
# B6: D5 IgG1 antibody (Fab D5 reformatted) (antibody, V domains shown)
# VH: B4 VH
# VL: B4 VL
# Biological target: protease domain of Endotheliase-2 (ET2) (human) (UniProt Q9BYE2)
# Assay: continuous in vitro enzyme assay on rET2, Fab
# Sequence of protease domain of Endotheliase-2 (ET2) (human) (Q9BYE2 other isoform, or with tags, fused parts or gaps limits assumed): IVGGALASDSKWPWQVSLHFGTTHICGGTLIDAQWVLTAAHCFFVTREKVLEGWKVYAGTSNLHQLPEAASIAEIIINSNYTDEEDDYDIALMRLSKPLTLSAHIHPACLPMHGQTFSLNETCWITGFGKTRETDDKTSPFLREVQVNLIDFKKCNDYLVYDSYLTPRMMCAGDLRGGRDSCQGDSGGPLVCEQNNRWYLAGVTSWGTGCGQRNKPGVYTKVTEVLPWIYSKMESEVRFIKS
row,Ki,Binder
1,0.095 nM,B1
2,0.31 nM,B2
3,0.15 nM,B3
4,0.07 nM,B4

# Biological target: protease domain of Endotheliase-2 (ET2) (human) (UniProt Q9BYE2)
# Assay: continuous in vitro enzyme assay, inhibition of ET2 protease activity by soluble Fab
row,Ki,Binder
1,0.09 nM,B1
2,0.26 nM,B2
3,0.16 nM,B3
4,0.07 nM,B4

# Biological target: protease domain of Endotheliase-2 (ET2) (human) (UniProt Q9BYE2)
# Assay: continuous in vitro enzyme assay on rET2, IgG1
row,Ki,Binder
1,0.11 nM,B5
2,0.086 nM,B6
